Broadly, the IC50 is the concentration that gives 50% inhibition. The term Kd denotes the concentration at which binding is half-saturated.

The values that follow come from US20230304019, “DNA APTAMER, PHARMACEUTICAL COMPOSITION COMPRISING SAME, METHOD FOR INHIBITING CATALYTIC ABILITY OF TXNDC5, AND METHOD FOR PREVENTING OR TREATING ORGAN FIBROSIS” (CHI-HUA FUNDATION, published 2023).

Data set [1] has as its target T1, TXNDC5 (wild type) (Homo sapiens, UniProt Q8NBS9 Q8NBS9:33-432). In words: inhibition; insulin reduction turbidity assay, 0.5 mM DTT, potassium phosphate, EDTA, pH 7. The following applies: tags: Ni-column purified, baculovirus/insect cells, Sino Biological. On the procedure:
An insulin/assay buffer is prepared by adding 1.6 mM insulin (which is prepared by dissolving insulin in 0.1 N HCl) with the assay buffer consisted of 100 mM potassium phosphate and 0.2 mM EDTA (pH 7). The volume of each insulin/assay buffer is 15 μl, wherein the volume of insulin is 6 μl and the volume of assay buffer is 9 μl.
Each of the above mixtures of aptamers (Ap-3, Ap7 and Ap-11) with different concentrations and human wild type TXNDC5 is added with a corresponding insulin/assay buffer separately. That is, aptamer-3, aptamer-7 and aptamer-11 have seven experimental group samples (with different concentrations, 7.8125 μM, 15.625 μM, 31.25 μm, 62.5 μM, 125 μM, 250 μM and 500 μM) separately. An insulin/assay buffer which is not added with the above mixture of aptamers and human wild type TXNDC5 is prepared as the control group sample.

The target of data set [2] is T2, TXNDC5 (Mus musculus, UniProt Q91W90 Q91W90:34-417). In words: q-PCR of eluted aptamer; specific and strong binding to mouse TXNDC5. As to conditions: tags: Ni-column purified, baculovirus/insect cells, Sino Biological; single stem-loop (predicted). On the procedure:
The 100 nM of aptamer-3, aptamer-7 and aptamer-11 are folded in the binding buffer via the procedures as mentioned above. 20 nM of Aptamer-3, aptamer-7 and aptamer-11 are taken individually and hybridized with positive-(mouse and human TXNDC5, 5 μl) and negative-(serum and catalytic-death TXNDC5, 5 μl) MNPs, and the hybridized aptamers-MNPs are processed according to the above MARAS procedures. Aptamer-3, aptamer-7 and aptamer-11 bound with MNPs are collected and eluted by heating to 95° C. for 5 min in 100 μl ddH₂O.
The amounts of aptamer-3, aptamer-7 and aptamer-11 are detected by q-PCR and the relative expression levels are utilized as outcomes. The process of detecting the amounts of aptamer-3, aptamer-7 and aptamer-11 by q-PCR is set forth as following. To measure the relative expression of aptamer-3, aptamer-7 and aptamer-11, the q-PCR is performed in 96-well plates with BioRad CFX Connect system. The fivefold-diluted eluted aptamer-3, aptamer-7 and aptamer-11 are individually dissolved in test tubes filled with 100 μl of RNase-free water. […]

The target of data set [3] is T1, TXNDC5 (wild type). In words: magnetic nanoparticle (MARAS) pulldown with q-PCR, nonlinear regression. As to conditions: tags: Ni-column purified, baculovirus/insect cells, Sino Biological; double stem-loop (predicted). On the procedure: (§1) For further determining the binding efficiency of TXNDC5-targeting aptamers, the Kd values, as the indicator of aptamer and target molecule interaction, of aptamer-3 and aptamer-7 are measured by q-PCR, and the results were fitted with nonlinear regression. The method of measuring the Kd values of aptamer-3 and aptamer-7 is illustrated as following.
(§2) Aptamer-3 and aptamer-7 are isolated and progressively diluted in series from 100 to 3.125 nM, aptamer-3 and aptamer-7 are folded in the binding buffer as the procedures mentioned above. Equal amounts of either mouse-MNPs or humane-MNPs are mixed with aptamer-3 and aptamer-7 and followed the MARAS and q-PCR procedure as described above to specifically bind to aptamer-3 and aptamer-7. The Kd values of aptamer-3 and aptamer-7 are measured by fitting the results of each Ct value from q-PCR and the concentrations in a nonlinear regression through PRISM 8 (Graphpad). Each result is performed in duplicate to reduce the errors.

Data set [4] deals with T2, TXNDC5. The description is as above. The following applies: tags: Ni-column purified, baculovirus/insect cells, Sino Biological; double stem-loop (predicted). On the procedure:
as §1, §2

T1 sequence (Q8NBS9 33-432, one chain of several): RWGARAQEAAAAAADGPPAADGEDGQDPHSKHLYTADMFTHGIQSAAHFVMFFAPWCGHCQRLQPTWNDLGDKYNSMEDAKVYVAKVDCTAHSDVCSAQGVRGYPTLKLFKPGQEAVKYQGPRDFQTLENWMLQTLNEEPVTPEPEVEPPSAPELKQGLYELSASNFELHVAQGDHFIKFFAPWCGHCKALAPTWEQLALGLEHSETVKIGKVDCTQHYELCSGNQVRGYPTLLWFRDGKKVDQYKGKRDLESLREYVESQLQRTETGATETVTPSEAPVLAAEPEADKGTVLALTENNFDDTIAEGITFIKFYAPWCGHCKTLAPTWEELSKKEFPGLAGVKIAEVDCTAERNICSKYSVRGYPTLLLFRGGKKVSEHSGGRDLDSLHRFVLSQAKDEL
T2 sequence (Q91W90 34-417, one chain of several): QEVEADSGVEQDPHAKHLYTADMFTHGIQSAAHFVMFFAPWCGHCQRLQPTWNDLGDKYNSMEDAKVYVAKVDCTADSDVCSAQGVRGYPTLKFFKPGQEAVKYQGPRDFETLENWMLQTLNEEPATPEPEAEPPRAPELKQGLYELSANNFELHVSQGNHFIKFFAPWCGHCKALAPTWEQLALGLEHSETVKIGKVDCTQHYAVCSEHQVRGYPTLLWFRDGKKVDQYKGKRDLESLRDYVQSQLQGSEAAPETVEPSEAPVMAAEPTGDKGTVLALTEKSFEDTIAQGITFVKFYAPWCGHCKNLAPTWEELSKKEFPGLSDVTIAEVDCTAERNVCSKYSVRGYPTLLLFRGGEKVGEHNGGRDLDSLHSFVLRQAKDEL

For the molecule AGCAGCACAGAGGTCTCTTATTACTCTCCCGTACCGCGTGCTACCGTGAA (ssDNA) [Aptamer-11], the IC50 with TXNDC5 (wild type) [1] (single stem-loop (predicted)) was 263 µM. The binding result in the data set with TXNDC5 [2] is on record as “binds”.
For AGCAGCACAGAGGTCAGGAACCTTATGCCTATGTAGCGTGCTACCGTGAA (ssDNA) [Aptamer-7], the IC50 with TXNDC5 (wild type) [1] (double stem-loop (predicted)) was 241 µM. Also, the Kd in the data set with TXNDC5 (wild type) [3] is 16.9 nM.
Regarding AGCAGCACAGAGGTCAATGTAATCTTTATCTATCGGCGTGCTACCGTGAA (ssDNA) [Aptamer-3], the IC50 with TXNDC5 (wild type) [1] (double stem-loop (predicted)) was 214 µM. For the same molecule, the Kd with TXNDC5 [4] is 7.5 nM.
